The record followed here is patent US20090214428A1 (HENRY M JACKSON FOUNDATION FOR THE ADVANCEMENT OF MILITARY …, published 2009).

Experiment [1] has as its target T1, soluble Hendra virus G glycoprotein (sG) (Hendra virus, UniProt O89343 71-604).
T1 sequence: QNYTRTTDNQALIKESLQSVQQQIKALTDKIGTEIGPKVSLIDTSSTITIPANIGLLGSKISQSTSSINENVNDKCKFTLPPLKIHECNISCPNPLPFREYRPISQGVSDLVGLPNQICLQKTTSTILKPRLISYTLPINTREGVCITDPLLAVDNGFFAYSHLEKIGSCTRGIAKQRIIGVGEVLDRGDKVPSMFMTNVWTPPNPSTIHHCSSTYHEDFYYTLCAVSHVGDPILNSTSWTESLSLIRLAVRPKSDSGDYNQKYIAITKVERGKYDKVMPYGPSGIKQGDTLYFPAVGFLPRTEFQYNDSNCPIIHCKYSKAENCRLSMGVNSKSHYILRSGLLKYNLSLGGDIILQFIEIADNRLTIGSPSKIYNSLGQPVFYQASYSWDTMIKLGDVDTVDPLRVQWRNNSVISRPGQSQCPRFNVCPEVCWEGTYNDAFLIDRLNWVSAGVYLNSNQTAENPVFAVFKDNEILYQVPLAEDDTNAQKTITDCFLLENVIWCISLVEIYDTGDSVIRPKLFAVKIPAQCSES
Nature of the experiment: SPR (Biacore 1000), sG immobilised on CM5, Fab injected, 25 C, 1:1 Langmuir fit.

Experiment [2] concerns the target T1, soluble Hendra virus G glycoprotein (sG). Nature of the experiment: ELISA, purified soluble Fab on coated sG.
For experiment [3], the target named is T2, HeV G envelope glycoprotein (on effector cells expressing HeV F and G, or on infectious HeV) (Hendra virus, UniProt O89343 1-604).
T2 sequence: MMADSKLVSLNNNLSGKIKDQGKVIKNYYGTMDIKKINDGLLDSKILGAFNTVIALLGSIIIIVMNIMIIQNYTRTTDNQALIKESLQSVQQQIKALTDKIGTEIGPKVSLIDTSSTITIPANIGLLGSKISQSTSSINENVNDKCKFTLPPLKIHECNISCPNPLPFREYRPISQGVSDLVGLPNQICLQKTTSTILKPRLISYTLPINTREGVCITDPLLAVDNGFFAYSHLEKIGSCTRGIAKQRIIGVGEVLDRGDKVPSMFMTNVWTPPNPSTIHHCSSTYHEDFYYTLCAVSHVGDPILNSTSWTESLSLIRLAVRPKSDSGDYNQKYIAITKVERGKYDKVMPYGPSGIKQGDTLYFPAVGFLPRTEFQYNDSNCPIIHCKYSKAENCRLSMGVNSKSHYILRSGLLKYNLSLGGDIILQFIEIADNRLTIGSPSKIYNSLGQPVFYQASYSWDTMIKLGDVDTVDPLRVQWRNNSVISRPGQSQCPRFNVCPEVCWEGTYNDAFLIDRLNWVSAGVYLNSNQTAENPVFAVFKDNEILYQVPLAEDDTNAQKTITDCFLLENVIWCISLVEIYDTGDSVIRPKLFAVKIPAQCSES
As to the kind of experiment: cell-based or functional assay.

In experiment [4] the target is T1, soluble Hendra virus G glycoprotein (sG). As to the kind of experiment: SPR (Biacore); upper end of the range told of the group, tied to m103 by Table 5.
Experiment [5] has the same target.
Experiment [6] deals with T3, myc-tagged NiV G (full-length, from lysates of infected cells) (Nipah virus, UniProt Q9IH62 1-602).
T3 sequence: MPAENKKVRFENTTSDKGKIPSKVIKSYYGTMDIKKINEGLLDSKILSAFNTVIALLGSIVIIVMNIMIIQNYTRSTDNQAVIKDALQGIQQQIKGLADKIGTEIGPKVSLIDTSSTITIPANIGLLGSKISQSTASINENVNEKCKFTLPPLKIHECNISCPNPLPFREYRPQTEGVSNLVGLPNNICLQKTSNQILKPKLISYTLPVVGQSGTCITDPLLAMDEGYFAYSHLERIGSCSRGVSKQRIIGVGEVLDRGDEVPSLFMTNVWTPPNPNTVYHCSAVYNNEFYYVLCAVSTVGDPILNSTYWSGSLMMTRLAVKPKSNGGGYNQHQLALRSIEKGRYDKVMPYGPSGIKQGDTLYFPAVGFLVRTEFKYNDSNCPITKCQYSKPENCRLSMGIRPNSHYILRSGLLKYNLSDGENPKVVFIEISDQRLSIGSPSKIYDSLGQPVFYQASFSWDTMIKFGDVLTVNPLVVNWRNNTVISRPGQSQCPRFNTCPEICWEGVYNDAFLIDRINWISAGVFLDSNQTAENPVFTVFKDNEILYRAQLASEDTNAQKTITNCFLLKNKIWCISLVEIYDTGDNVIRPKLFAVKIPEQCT
Nature of the experiment: immunoprecipitation of 35S-labelled myc-tagged G from cell lysate.

Read-outs that look alike come from different tables or passages of the source.

B1: Fab m101 (Fab, V domains shown)
VH: QVQLVQSGAEVKKPGASVKVSCKASGGTFSSYAISWVRQAPGQGLEWMGGIIPIFGTANYAQKFQGRVTITADESTSTAYMELSSLRSGDTAVYYCARDPGGYSYGPYYYYYGMDVWGQGTTVTVSS
VL: DIQMTQSPSSVSASVGDRVTITCRASQGIGPWLAWYQQKPGKAPKFLIYRASTLQSGVPSRFSGSGSGTDFTLTISSLQPEDFATYYCQQAHSFPFTFGPGTKVDIKR
On to B1, for which, in experiment [1], the equilibrium dissociation constant (Kd) was determined as 28 nM, the koff stood at 0.0035 s⁻¹ and the kon was 130000 M⁻¹ s⁻¹. Besides, in experiment [2], the A450 is 1 A450. In experiment [3], the “IC50 of HeV Env-mediated cell fusion, reporter gene assay, PCI-13 target cells” value was found to be 38 µg/mL.

B2: IgG1 m101 (antibody, V domains shown)
VH: B1 VH
VL: B1 VL
B2: in experiment [3], the “IC50 of HeV Env-mediated cell fusion, reporter gene assay, PCI-13 target cells” value is 1.2 µg/mL.

B3: Fab m103 (Fab, V domains shown)
VH: EVQLVESGGGLIQPGGSLRLSCAASGFTVSSNYMSWVRQAPGKGLEWVSVIYSGGSTYYADSVKGRFTISRDNSKNTLYLQMNSLRAEDTAVYYCARDSRYHDAFDIWGQGTMVTVSS
VL: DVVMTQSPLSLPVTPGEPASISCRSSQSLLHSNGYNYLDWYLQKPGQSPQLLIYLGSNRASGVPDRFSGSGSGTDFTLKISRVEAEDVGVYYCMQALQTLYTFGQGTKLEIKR
In experiment [2], B3 returned an A450 of 0.8 A450. Further, the equilibrium dissociation constant (Kd) in experiment [4] worked out at 1000 nM; in experiment [5] it was 1800 nM.

B4: Fab m102 (Fab, V domains shown)
VH: EVQLVQSGAEVKKPGSSVKVSCKSSGGTFSNYAINWVRQAPGQGLEWMGGIIPILGIANYAQKFQGRVTITTDESTSTAYMELSSLRSEDTAVYYCARGWGREQLAPHPSQYYYYYYGMDVWGQGTTVTVSS
VL: EIVLTQSPGTLSLSPGERATLSCRASQSITNGRLAWYQQKPGQAPRLLIYGVSSRASGIPERFSGSGSGTDFTLTISRLEPEDFAVYYCQQYGSSVLFGPGTKVDIKR
In the case of B4, the binding result in experiment [6] was “binds”.
